Results reported in IntAct's records for PubMed 12473693.

B1: Vinculin (Gallus gallus (Chicken)), P12003-1 (parent)
chain: MPVFHTRTIESILEPVAQQISHLVIMHEEGEVDGKAIPDLTAPVSAVQAAVSNLVRVGKETVQTTEDQILKRDMPPAFIKVENACTKLVRAAQMLQADPYSVPARDYLIDGSRGILSGTSDLLLTFDEAEVRKIIRVCKGILEYLTVAEVVETMEDLVTYTKNLGPGMTKMAKMIDERQQELTHQEHRVMLVNSMNTVKELLPVLISAMKIFVTTKNTKSQGIEEALKNRNFTVEKMSAEINEIIRVLQLTSWDEDAWASKDTEAMKRALALIDSKMNQAKGWLRDPNAPPGDAGEQAIRQILDEAGKAGELCAGKERREILGTCKTLGQMTDQLADLRARGQGATPMAMQKAQQVSQGLDLLTAKVENAARKLEAMTNSKQAIAKKIDAAQNWLADPNGGSEGEEHIRGIMSEARKVAELCEEPKERDDILRSLGEISALTAKLSDLRRHGKGDSPEARALAKQIATSLQNLQSKTNRAVANTRPVKAAVHLEGKIEQAQRWIDNPTVDDRGVGQAAIRGLVAEGRRLANVMMGPYRQDLLAKCDRVDQLAAQLADLAARGEGESPQARAIAAQLQDSLKDLKARMQEAMTQEVSDVFSDTTTPIKLLAVAATAPSDTPNREEVFEERAANFENHAARLGATAEKAAAVGTANKTTVEGIQATVKSARELTPQVVSAARILLRNPGNQAAYEHFETMKNQWIDNVEKMTGLVDEAIDTKSLLDASEEAIKKDLDKCKVAMANMQPQMLVAGATSIARRANRILLVAKREVENSEDPKFREAVKAASDELSKTISPMVMDAKAVAGNISDPGLQKSFLDSGYRILGAVAKVREAFQPQEPDFPPPPPDLEHLHLTDELAPPKPPLPEGEVPPPRPPPPEEKDEEFPEQKAGEAINQPMMMAARQLHDEARKWSSKGNDIIAAAKRMALLMAEMSRLVRGGSGNKRALIQCAKDIAKASDEVTRLAKEVAKQCTDKRIRTNLLQVCERIPTISTQLKILSTVKATMLGRTNISDEESEQATEMLVHNAQNLMQSVKETVREAEAASIKIRTDAGFTLRWVRKTPWYQ

Variants of: B1
Conditions: with arpc2_mouse Arpc2, Q9CVB6

Row | Variant | effect of a mutation on the interaction
1 | P878A | disrupting interaction
